Publication PMC10142695, “Expression and Characterization of 3,6-Dihydroxy-picolinic Acid Decarboxylase PicC of Bordetella bronchiseptica RB50” (Microorganisms, 2023)

Substrate: O=C(O)c1nc(O)ccc1O
Experiment: purified protein
Type: biochemical, Bordetella bronchiseptica
Settings: 50 mM PBS pH 7.4 (unit definition says pH 7.0), 25 °C, 0 to 300 μM 3,6DHPA, no added metal stated

B1: PicCRB50 (Bordetella bronchiseptica RB50) (protein)
chain: MTKVRKIAFEEHFTAVGFGDYSKAFVQHLDPGFAAELGARLTDFGAGRLAEMDAAGIDYAILSQTGPGVQGEPDAAVALRRARENNDFLAERIARHPDRFGGFAALPMHDPKTAAAELTRAVRELGFKGSLVNGHTNGVYYDDPAYDAFWEQMQELDVPLYLHPFDAYVLPHAYKGHPELAGATWGWGVETGTHALRLLFGGVFDRFPKLKIILGHMGEGLPFQRWRFDSRFAAYPYGVKLQRAPSEYIGSNILITTSGVCSHPTLVGAIAEMGAEAVMFSIDYPYESTALAVEFIESAPLDAATRELVCYGNAARLFKL
B1 gave a Km of 20.41 ± 2.60 µM and a kcat of 7.61 ± 0.53 S^−1.
